From article PMC9427789, “Prediction of the structural interface between fibroblast growth factor23 and Burosumab using alanine scanning and molecular docking” (Scientific Reports, 2022)
Changes are numbered by the printed parent chain. Numbers in names are those of the source. Each block holds one binder with its values, some of them ahead of it.

How the values were obtained:
Conditions in all cases: both partners purified
[1] = molecular target: T1, His-SUMO-FGF23 (N-terminal domain of human FGF23, wild type) (Homo sapiens, UniProt Q9GZV9); assay: ELISA; spot-check ELISA: FGF23 coated at 2 µg/mL on Maxisorp plates (4 °C overnight), Burosumab or its alanine mutants at two concentrations (0.04 and 1.2 µg/mL), room temperature 2 h, anti-human IgG H&L-HRP, A450; fold change from A450 against wild-type Burosumab
T1 construct: FGF23, human, N-terminal domain; also called wild-type FGF23; source: E. coli BL21(DE3), purified (Ni-NTA); not shown: His, N-terminal, kept; SUMO, N-terminal, kept

[2] = molecular target: T2, His-SUMO-FGF23 Y124A (N-terminal domain of human FGF23) (Homo sapiens, UniProt Q9GZV9, Y124A); assay: ELISA; indirect ELISA: FGF23 or its mutants coated at 2 µg/mL on Maxisorp plates (4 °C overnight), Burosumab or its variants three-fold serially diluted in PBS from 9 µg/mL, room temperature 2 h, anti-human IgG H&L-HRP, A450; fold change from Kd values against the wild type
T2 construct: FGF23, human, N-terminal domain; source: E. coli BL21(DE3), purified (Ni-NTA); not shown: His, N-terminal, kept; SUMO, N-terminal, kept

[3] = molecular target: T3, His-SUMO-FGF23 H117A (N-terminal domain of human FGF23) (Homo sapiens, UniProt Q9GZV9, H117A); assay: as above
T3 construct: FGF23, human, N-terminal domain; source: E. coli BL21(DE3), purified (Ni-NTA); not shown: His, N-terminal, kept; SUMO, N-terminal, kept

[4] = molecular target: T4, His-SUMO-FGF23 R160A-R161A (N-terminal domain of human FGF23) (Homo sapiens, UniProt Q9GZV9, R160A | R161A); assay: as above
T4 construct: FGF23, human, N-terminal domain; also called combined R160A and R161A; double alanine mutant; source: E. coli BL21(DE3), purified (Ni-NTA); not shown: His, N-terminal, kept; SUMO, N-terminal, kept

[5] = molecular target: T1, His-SUMO-FGF23 (N-terminal domain of …); assay: as above

T1 sequence (Q9GZV9 25-204): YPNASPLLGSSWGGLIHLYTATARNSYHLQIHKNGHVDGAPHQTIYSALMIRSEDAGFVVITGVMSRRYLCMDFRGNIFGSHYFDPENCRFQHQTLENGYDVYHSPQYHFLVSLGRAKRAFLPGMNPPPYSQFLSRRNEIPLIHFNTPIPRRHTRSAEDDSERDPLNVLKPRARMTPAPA
T2 sequence (Q9GZV9 25-204 Y124A): as the sequence (Q9GZV9 25-204) above, with Y100A counted along it
T4 sequence (Q9GZV9 25-204 R160A/R161A): as the sequence (Q9GZV9 25-204) above, with R136A, R137A counted along it
T3 sequence (Q9GZV9 25-204 H117A): as the sequence (Q9GZV9 25-204) above, with H93A counted along it

binding result [1]: binds | fold decrease in binding against wild-type FGF23 [2]: ~50 fold | fold decrease in binding against wild-type FGF23 [3]: > 100 fold | fold decrease in binding against wild-type FGF23 [4]: 7 fold
B1: Burosumab (wild type) (antibody, V domains shown)
VH: QVQLVQSGAEVKKPGASVKVSCKASGYTFTNHYMHWVRQAPGQGLEWMGIINPISGSTSNAQKFQGRVTMTRDTSTSTVYMELSSLRSEDTAVYYCARDIVDAFDFWGQGTMVTVSS
VL: AIQLTQSPSSLSASVGDRVTITCRASQGISSALVWYQQKPGKAPKLLIYDASSLESGVPSRFSGSGSGTDFTLTISSLQPEDFATYYCQQFNDYFTFGPGTKVDIK
notes: heavy chain of Burosumab; light chain of Burosumab; Whole antibody, detected with anti-human IgG H&L. The results say HEK293T, the methods HEK293-F FreeStyle; Residue numbers are Chothia; also called Crysvita; WT Burosumab; source: HEK293-F FreeStyle, transiently transfected, purified (Protein A agarose)

binding result [1]: no binding | fold decrease in binding against wild-type Burosumab [1]: > 100 fold
B6: Burosumab VL:D50A (antibody, V domains shown)
VH: B1 VH
VL: B1 VL with D50A
notes: as the heavy chain of m1; as the light chain of m1; also called D50A (LCDR2); source: HEK293-F FreeStyle, transiently transfected, purified (Protein A agarose)

The next lines start with the binder.

B2: Burosumab VH:V97A (antibody, V domains shown)
VH: B1 VH with V101A
VL: B1 VL
notes: as the heavy chain of m1; as the light chain of m1; source: HEK293-F FreeStyle, transiently transfected, purified (Protein A agarose)
fold improvement of binding affinity against wild-type Burosumab [1]: 1.2 fold

B3: Burosumab variant with combined VH:V97A and VL:A32S mutations (antibody, V domains shown)
VH: B1 VH with V101A
VL: B1 VL with A32S
notes: as the heavy chain of m1; as the light chain of m1; also called combined Burosumab variant; double mutant; source: HEK293-F FreeStyle, transiently transfected, purified (Protein A agarose)
fold improvement of binding against wild-type Burosumab [5]: 3.7 fold

B4: Burosumab VL:A32S (antibody, V domains shown)
VH: B1 VH
VL: B1 VL with A32S
notes: as for B2
fold improvement of binding affinity against wild-type Burosumab [5]: 1.6 fold

B5: Burosumab VL:F96A (antibody, V domains shown)
VH: B1 VH
VL: B1 VL with F95A
notes: as the heavy chain of m1; as the light chain of m1; also called F96A (LCDR3); source: HEK293-F FreeStyle, transiently transfected, purified (Protein A agarose)
fold decrease in binding against wild-type Burosumab [1]: 2.32 fold

B7: Burosumab VH:D98A (antibody, V domains shown)
VH: B1 VH with D102A
VL: B1 VL
notes: as for B2
fold decrease in binding against wild-type Burosumab [1]: 2.62 fold
